Columns and labels:
HeLa Kyoto [1] = test: melting temperature (median over replicates), in situ; higher = more thermally stable
HeLa Kyoto [2] = test: thermal stability score vs G1/S (z-score of summed log2 fold changes over temperatures); higher = more thermally stable than in G1/S
HeLa Kyoto [3] = test: solubility in G1/S (NP-40 vs SDS abundance) (log2 ratio); higher = more soluble; settings: cell cycle stage: G1/S
HeLa Kyoto [4] = test: solubility change mitosis vs G1/S (difference of NP-40 vs SDS log2 ratios) (log2 ratio difference); higher = more soluble in mitosis
[5] = cell cycle stage: early G1 (4.5 h after nocodazole release)
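Wherever melting temperature (median over replicates), in situ is given: HeLa Kyoto cells synchronized by double thymidine or nocodazole block, proteins quantified by TMT10plex mass spectrometry, three independent biological replicates.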
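Wherever solubility change mitosis vs G1/S (difference of NP-40 vs SDS log2 ratios) is given: synchronized HeLa Kyoto cells (double thymidine block for G1/S, nocodazole release for mitosis), protein amounts in NP-40 versus SDS lysates quantified by mass spectrometry, three biological replicates.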
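Wherever solubility in G1/S (NP-40 vs SDS abundance) is given: HeLa Kyoto cells arrested at G1/S by double thymidine block, proteins quantified by TMT10plex mass spectrometry in mild NP-40 versus SDS extracts, three biological replicates.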
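Wherever thermal stability score vs G1/S (z-score of summed log2 fold changes over temperatures) is given: synchronized HeLa Kyoto cells, proteins quantified by TMT10plex mass spectrometry, three biological replicates, mitosis taken 0.5 h after nocodazole release, G1/S directly after double thymidine block.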

MAQALSEEEFQRMQAQLLELRTNNYQLSDELRKNGVELTSLRQKVAYLDKEFSKAQKALSKSKKAQEVEVLLSENEMLQAKLHSQEEDFRLQNSTLMAEFSKLCSQMEQLEQENQQLKEGAAGAGVAQAGPLVDGELLRLQAENTALQKNVAALQERYGKEAGKFSAVSEGQGDPPGGLAPTVLAPMPLAEVELKWEMEKEEKRLLWEQLQGLESSKQAETSRLQEELAKLSEKLKKKQESFCRLQTEKETLFNDSRNKIEELQQRKEADHKAQLARTQKLQQELEAANQSLAELRDQRQGERLEHAAALRALQDQVSIQSADAQEQVEGLLAENNALRTSLAALEQIQTAKTQELNMLREQTTGLAAELQQQQAEYEDLMGQKDDLNSQLQESLRANSRLLEQLQEIGQEKEQLTQELQEARKSAEKRKAMLDELAMETLQEKSQHKEELGAVRLRHEKEVLGVRARYERELRELHEDKKRQEEELRGQIREEKARTRELETLQQTVEELQAQVHSMDGAKGWFERRLKEAEESLQQQQQEQEEALKQCREQHAAELKGKEEELQDVRDQLEQAQEERDCHLKTISSLKQEVKDTVDGQRILEKKGSAALKDLKRQLHLERKRADKLQERLQDILTNSKSRSGLEELVLSEMNSPSRTQTGDSSSISSFSYREILREKESSAVPARSLSSSPQAQPPRPAELSDEEVAELFQRLAETQQEKWMLEEKVKHLEVSSASMAEDLCRKSAIIETYVMDSRIDVSVAAGHTDRSGLGSVLRDLVKPGDENLREMNKKLQNMLEEQLTKNMHLHKDMEVLSQEIVRLSKECVGPPDPDLEPGETS [GRIPAP1]
melting temperature (HeLa Kyoto [1]; cell cycle stage: G1/S): 49.3 °C | melting temperature (HeLa Kyoto [1]; cell cycle stage: mitosis): 49.8 °C | thermal stability score (HeLa Kyoto [2]; [5]): 0.674 | thermal stability score (HeLa Kyoto [2]; cell cycle stage: mitosis): -0.142 | solubility in G1/S (log2) (HeLa Kyoto [3]): 0.476 | solubility change mitosis (log2) (HeLa Kyoto [4]): -0.112

MAQESPKNSAAEIPVTSNGEVDDSREHSFNRDLKHSLPSGLGLSETQITSHGFDNTKEGVIEAGAFQGSPAPPLPSVMSPSRVAASRLAQQGSDLIVPAGGQRTQTKSGPVILADEIKNPAMEKLELVRKWSLNTYKCTRQIISEKLGRGSRTVDLELEAQIDILRDNKKKYENILKLAQTLSTQLFQMVHTQRQLGDAFADLSLKSLELHEEFGYNADTQKLLAKNGETLLGAINFFIASVNTLVNKTIEDTLMTVKQYESARIEYDAYRTDLEELNLGPRDANTLPKIEQSQHLFQAHKEKYDKMRNDVSVKLKFLEENKVKVLHNQLVLFHNAIAAYFAGNQKQLEQTLKQFHIKLKTPGVDAPSWLEEQ [ARFIP1]
melting temperature (HeLa Kyoto [1]; cell cycle stage: G1/S): 51.2 °C | melting temperature (HeLa Kyoto [1]; cell cycle stage: mitosis): 50.9 °C | thermal stability score (HeLa Kyoto [2]; [5]): -0.0158 | thermal stability score (HeLa Kyoto [2]; cell cycle stage: mitosis): 0.558 | solubility in G1/S (log2) (HeLa Kyoto [3]): 0.623 | solubility change mitosis (log2) (HeLa Kyoto [4]): -0.00419

MAQLGKLLKEQKYDRQLRLWGDHGQEALESAHVCLINATATGTEILKNLVLPGIGSFTIIDGNQVSGEDAGNNFFLQRSSIGKNRAEAAMEFLQELNSDVSGSFVEESPENLLDNDPSFFCRFTVVVATQLPESTSLRLADVLWNSQIPLLICRTYGLVGYMRIIIKEHPVIESHPDNALEDLRLDKPFPELREHFQSYDLDHMEKKDHSHTPWIVIIAKYLAQWYSETNGRIPKTYKEKEDFRDLIRQGILKNENGAPEDEENFEEAIKNVNTALNTTQIPSSIEDIFNDDRCINITKQTPSFWILARALKEFVAKEGQGNLPVRGTIPDMIADSGKYIKLQNVYREKAKKDAAAVGNHVAKLLQSIGQAPESISEKELKLLCSNSAFLRVVRCRSLAEEYGLDTINKDEIISSMDNPDNEIVLYLMLRAVDRFHKQQGRYPGVSNYQVEEDIGKLKSCLTGFLQEYGLSVMVKDDYVHEFCRYGAAEPHTIAAFLGGAAAQEVIKIITKQFVIFNNTYIYSGMSQTSATFQL [NAE1]
melting temperature (HeLa Kyoto [1]; cell cycle stage: G1/S): 51.5 °C | melting temperature (HeLa Kyoto [1]; cell cycle stage: mitosis): 51.3 °C | thermal stability score (HeLa Kyoto [2]; [5]): 0.0621 | thermal stability score (HeLa Kyoto [2]; cell cycle stage: mitosis): 0.146 | solubility in G1/S (log2) (HeLa Kyoto [3]): 0.0839 | solubility change mitosis (log2) (HeLa Kyoto [4]): -0.191

MAQVEKRGGLLRKSSASKKPLKEKVVLMYDEIFMTEDPSKCSPRFWEELFLMKVNLEYLEGKLESLDGEELMKIKDNINCLFQHCIQALGEEHPIRVVNALQTLCALIRGVHQKNKSTSGFDIINMLMGFDKAELCMKNLMESLDSLLCAEGSESLKSLCLKLLLCLVTVTDNISQNTILEYVMINSIFEAILQILSHPPSRREHGYDAVVLLALLVNYRKYESVNPYIVKLSIVDDEATLNGMGLVIAQALSEYNRQYKDKEEEHQSGFFSALTNMVGSMFIADAHEKISVQTNEAILLALYEAVHLNRNFITVLAQSHPEMGLVTTPVSPAPTTPVTPLGTTPPSSDVISSVELPLDADVQTSNLLITFLKYSSIVMQDTKDEHRLHSGKLCLIILTCIAEDQYANAFLHDDNMNFRVNLHRMPMRHRKKAADKNLPCRPLVCAVLDLMVEFIVTHMMKEFPMDLYIRCIQVVHKLLCYQKKCRVRLHYTWRELWSALINLLKFLMSNETVLLAKHNIFTLALMIVNLFNMFITYGDTFLPTPSSYDELYYEIIRMHQSFDNLYSMVLRLSTNAGQWKEAASKVTHALVNIRAIINHFNPKIESYAAVNHISQLSEEQVLEVVRANYDTLTLKLQDGLDQYERYSEQHKEAAFFKELVRSISTNVRRNLAFHTLSQEVLLKEFSTIS [C10ORF76]
melting temperature (HeLa Kyoto [1]; cell cycle stage: G1/S): 54.1 °C | melting temperature (HeLa Kyoto [1]; cell cycle stage: mitosis): 55.3 °C | thermal stability score (HeLa Kyoto [2]; [5]): -0.1 | thermal stability score (HeLa Kyoto [2]; cell cycle stage: mitosis): -1.32 | solubility in G1/S (log2) (HeLa Kyoto [3]): -0.113 | solubility change mitosis (log2) (HeLa Kyoto [4]): -0.122

Source: the supplement of paper PMC5998384
